Source: patent US7220822

Columns and labels:
[1] = target: CD80-Ig (extracellular domain of CD80 fused with the constant region of mouse IgG1 heavy chain) (mouse); test: SPR competitive kinetics, average over peptide concentrations; competitor CD28-Ig
[2] = target: CD80-Ig (extracellular domain of CD80 fused with the constant region of mouse IgG1 heavy chain) (mouse); test: SPR direct kinetics, peptide 7.50E+02 nM over immobilized CD80-Ig
[3] = target: CD80-Ig (extracellular domain of CD80 fused with the constant region of mouse IgG1 heavy chain) (mouse); test: SPR competitive kinetics, peptide 0.25 × 10^5 nM with 3.2 µM CD28-Ig (competitor) over captured CD80-Ig
[4] = target: CD80-Ig (extracellular domain of CD80 fused with the constant region of mouse IgG1 heavy chain) (mouse); test: SPR direct kinetics, peptide 3.00E+03 nM over immobilized CD80-Ig
[5] = target: CD80-Ig (extracellular domain of CD80 fused with the constant region of mouse IgG1 heavy chain) (mouse); test: SPR direct kinetics, peptide 3.75E+02 nM over immobilized CD80-Ig
[6] = target: CD80-Ig (extracellular domain of CD80 fused with the constant region of mouse IgG1 heavy chain) (mouse); test: SPR competitive kinetics, peptide 1 × 10^5 nM with 3.2 µM CD28-Ig (competitor) over captured CD80-Ig
[7] = target: CD80-Ig (extracellular domain of CD80 fused with the constant region of mouse IgG1 heavy chain) (mouse); test: SPR competitive kinetics, peptide 2 × 10^5 nM with 3.2 µM CD28-Ig (competitor) over captured CD80-Ig
[8] = target: CD80-Ig (extracellular domain of CD80 fused with the constant region of mouse IgG1 heavy chain) (mouse); test: SPR competitive kinetics, peptide 3 × 10^5 nM with 3.2 µM CD28-Ig (competitor) over captured CD80-Ig
[9] = target: CD80-Ig (extracellular domain of CD80 fused with the constant region of mouse IgG1 heavy chain) (mouse); test: SPR direct kinetics, peptide 1.50E+03 nM over immobilized CD80-Ig
[10] = target: CD80-Ig (extracellular domain of CD80 fused with the constant region of mouse IgG1 heavy chain) (mouse); test: SPR (BIACORE), direct binding to immobilized CD80-Ig, linear regression plot
[11] = target: CD80-Ig (extracellular domain of CD80 fused with the constant region of mouse IgG1 heavy chain) (mouse); test: SPR competitive kinetics, peptide 0.125 × 10^5 nM with 3.2 µM CD28-Ig (competitor) over captured CD80-Ig
[12] = target: CD80-Ig (extracellular domain of CD80 fused with the constant region of mouse IgG1 heavy chain) (mouse); test: SPR (BIACORE), peptide over amine-coupled CD80-Ig, 37 C
[13] = target: CD80-Ig (extracellular domain of CD80 fused with the constant region of mouse IgG1 heavy chain) (mouse); test: SPR direct kinetics, peptide 6.00E+03 nM over immobilized CD80-Ig
[14] = target: CD80-Ig (extracellular domain of CD80 fused with the constant region of mouse IgG1 heavy chain) (mouse); test: SPR competitive kinetics, peptide 0.5 × 10^5 nM with 3.2 µM CD28-Ig (competitor) over captured CD80-Ig
[15] = target: CD80-Ig (extracellular domain of CD80 fused with the constant region of mouse IgG1 heavy chain) (mouse); test: SPR (BIACORE), EL CD28 peptide injected over amine-coupled CD80-Ig (1488 RU); slope of ln dR/dt vs t plotted against the peptide concentration, ka is the slope of this plot

Ac-KIEFMYPPPYLDNERSNGTI-NH2 [EL-CD28 (end-blocked L CD28 peptide mimetic)]
Kd [1]: 2790 nM
koff [2]: 0.274 s⁻¹
kon [2]: 110000 M⁻¹ s⁻¹
Kd [3]: 3360 nM
koff [3]: 0.0195 s⁻¹
kon [3]: 3360 M⁻¹ s⁻¹
koff [4]: 0.214 s⁻¹
kon [4]: 137000 M⁻¹ s⁻¹
koff [5]: 0.399 s⁻¹
kon [5]: 246000 M⁻¹ s⁻¹
Kd [6]: 2540 nM
koff [6]: 0.0803 s⁻¹
kon [6]: 31600 M⁻¹ s⁻¹
Kd [7]: 1560 nM
koff [7]: 0.0862 s⁻¹
kon [7]: 55100 M⁻¹ s⁻¹
Kd [8]: 2920 nM
koff [8]: 6.89 s⁻¹
kon [8]: 2.36e+06 M⁻¹ s⁻¹
koff [9]: 0.242 s⁻¹
kon [9]: 115000 M⁻¹ s⁻¹
Kd [10]: 2340 nM
Kd [11]: 1380 nM
koff [11]: 0.101 s⁻¹
kon [11]: 73400 M⁻¹ s⁻¹
maximum response units [12]: 668 RU
koff [13]: 0.273 s⁻¹
kon [13]: 111000 M⁻¹ s⁻¹
Kd [14]: 5000 nM
koff [14]: 0.316 s⁻¹
kon [14]: 63200 M⁻¹ s⁻¹
kon [15]: 113000 M⁻¹ s⁻¹
